This note sets out measurements from patent US20180273632A1 (BIOCEROX PRODUCTS B V, published 2018).

Broadly, the EC50 is the midpoint of the concentration-response curve. High values mean a less potent agent, low ones a more potent agent.

The target in test [1] is T1, human CD134 (full-length, on cells) (human, UniProt P43489 29-277).
T1 construct: also called OX40; TNFRSF4
T1 sequence: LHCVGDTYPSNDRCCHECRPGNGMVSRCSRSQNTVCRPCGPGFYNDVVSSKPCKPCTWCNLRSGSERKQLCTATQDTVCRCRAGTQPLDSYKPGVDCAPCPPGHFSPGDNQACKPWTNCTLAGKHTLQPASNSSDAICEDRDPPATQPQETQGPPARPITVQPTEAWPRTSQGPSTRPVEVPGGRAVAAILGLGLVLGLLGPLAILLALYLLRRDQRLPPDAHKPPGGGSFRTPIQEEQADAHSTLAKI
Briefly: flow cytometry, PHA-stimulated human T lymphocytes. Background: In flow cytometry, cells or beads pass a laser one at a time.

Test [2] concerns the target T1, human CD134 (full-length, on cells). Nature of the test: flow cytometry, PHA-stimulated human T lymphocytes, two donors. On the procedure:
PHA-stimulated (at 10 μg/mL for 2 days; see above) human CD134 expressing T lymphocytes were generated. Cells were harvested and put at 1-2×10⁶ cells/mL in ice chilled PBS/BSA/NaN₃ supplemented with 10% HPS (blocking Fcγ receptors; BioWhittaker). […] After extensive washing in PBS/BSA/NaN₃, cells were subsequently incubated with 1:200 diluted PE-conjugated goat anti-mouse IgG antibodies (Jackson ImmunoResearch) for 30 minutes at 4° C. […] After extensive washing in PBS/BSA/NaN₃, cells were fixed in 2% formaldehyde in PBS/BSA/NaN₃ for 30 minutes at 4° C.

In test [3] the target is T2, 'truncated (tc) CRD4' construct of human CD134 (amino acids 147-277 linked to signal peptide amino acids 1-28) (human, UniProt P43489 147-277).
T2 construct: also called truncated CRD4
T2 sequence: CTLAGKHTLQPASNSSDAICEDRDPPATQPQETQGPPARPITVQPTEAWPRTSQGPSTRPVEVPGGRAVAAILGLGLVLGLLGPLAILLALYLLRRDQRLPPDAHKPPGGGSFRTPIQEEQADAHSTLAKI
Nature of the test: flow cytometry on 293-F cells transiently transfected with the construct, PE goat anti-mouse IgG (Fcγ) [cont.]. As to the method:
After 48-72 h, surface human CD134 expression on transfected cells was analyzed by FACS analysis. To this end, transfected cells were harvested and put at 1-2×10⁶ cells/mL in ice-chilled PBS/BSA/NaN₃. […] After extensive washing in PBS/BSA/NaN₃, cells were subsequently incubated with 1:200 diluted PE-conjugated goat anti-mouse IgG (Fcγ specific) antibodies (Jackson ImmunoResearch) for 30 minutes at 4° C. After extensive washing in PBS/BSA/NaN₃, cells were fixed in 2% formaldehyde in PBS/BSA/NaN₃ for 30 minutes at 4° C.

In test [4] the target is T3, human CD134-derived peptide (truncated CRD3 A1-module-CRD4 subdomain A1-module, amino acids 108-146) (human).
T3 construct: Synthesized by Pepscan Presto; coated on ELISA plates at 10 ng/well
T3 peptide: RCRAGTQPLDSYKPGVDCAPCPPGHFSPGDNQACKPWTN
Briefly: ELISA, plate coated with 10 ng/well huCD134 peptide, HRP goat anti-mouse IgG Fcγ, n=1. On the procedure:
(§1) Ninety six-wells flat-bottom ELISA plates (Corning) were coated with 10 ng/well human CD134-derived peptide (synthesized by Pepscan Presto, Lelystad, The Netherlands), which corresponded to amino acid sequence of truncated CRD3 A1-module-CRD4 subdomain A1-module (see SEQ ID NO. 38) or with 10 ng/well human fibronectin-derived control peptide (synthesized by Pepscan Presto, Lelystad, The Netherlands), which corresponded to amino acid sequence of extra type III structural domain (see SEQ ID NO. 37) in PBS o/n at 4° C. After extensive washing in PBS/0.05% Tween 20, plates were blocked in PBS/0.05% Tween 20/1% BSA fraction V (Roche) for 1 hour at RT. […] After extensive washing in PBS/0.05% Tween 20, binding of antibodies was determined with 1:5000 diluted horseradish peroxidase-conjugated goat anti-mouse IgG Fcγ-specific antibodies (Jackson ImmunoResearch) for 1 hour at RT, followed by a ready-to-use solution of TMB substrate (lnvitrogen) for colorimetric detection. After adding 1 M H₂SO₄, optical densities was measured at a wavelength of 450 nm (reference wavelength of 655 nm) using a microplate reader (BioRad).
A general note: ELISA stands for enzyme-linked immunosorbent assay.

Test [5] has as its target T4, human fibronectin-derived control peptide (extra type III structural domain) (human).
T4 construct: Synthesized by Pepscan Presto; coated on ELISA plates at 10 ng/well; also called ED1 peptide
T4 peptide: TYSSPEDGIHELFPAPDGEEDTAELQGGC
Nature of the test: ELISA, plate coated with 10 ng/well control peptide, HRP goat anti-mouse IgG Fcγ, n=1. On the procedure: as §1

The target in test [6] is T4, human fibronectin-derived control …. Nature of the test: ELISA, plate coated with 10 ng/well control peptide, HRP goat anti-human IgG Fcγ, n=1. On the procedure:
as §1, with “anti-human” for “anti-mouse”, “(invitrogen)” for “(lnvitrogen)”

The target in test [7] is T2, 'truncated (tc) CRD4' construct of …. Nature of the test: flow cytometry on 293-F cells transiently transfected with the construct, PE goat anti-human IgG (Fcγ) [cont.]. On the procedure:
After 48-72 h, surface human CD134 expression on transfected cells was analyzed by FACS analysis. To this end, transfected cells were harvested and put at 1-2×10⁶ cells/mL in ice-chilled PBS/BSA/NaN3. […] After extensive washing in PBS/BSA/NaN₃, cells were subsequently incubated with 1:200 diluted PE-conjugated goat anti-human IgG (Fcγ specific) antibodies (Jackson ImmunoResearch) for 30 minutes at 4° C. After extensive washing in PBS/BSA/NaN₃, cells were fixed in 2% formaldehyde in PBS/BSA/NaN₃ for 30 minutes at 4° C.

In test [8] the target is T3, human CD134-derived peptide (truncated …). Nature of the test: ELISA, plate coated with 10 ng/well huCD134 peptide, HRP goat anti-human IgG Fcγ, n=1. On the procedure:
as §1, with “anti-human” for “anti-mouse”, “(invitrogen)” for “(lnvitrogen)”

The target of test [9] is T1, human CD134 (full-length, on cells). Nature of the test: flow cytometry, PHA-stimulated human CD4 positive T lymphocytes. As to the method:
PHA-stimulated (at 10 μg/mL for 1 day; see above) human CD134 expressing T lymphocytes were generated. Cells were harvested and put at 1-2×10⁶ cells/mL in ice-chilled PBS/BSA/NaN3. […] After extensive washing in PBS/BSA/NaN₃, cells were subsequently incubated with 1:50 diluted FITC-conjugated mouse anti-human IgG4 antibodies (Sigma) for 30 minutes at 4° C. […] After extensive washing in PBS/BSA/NaN₃, cells were fixed in 2% formaldehyde in PBS/BSA/NaN₃ for 30 minutes at 4° C.

In turn, “commercially available mouse anti-human CD134 antibody clone ACT35 (BD Biosciences)” had a saturating concentration in test [1] of 5 µg/mL. The molecule also returned an EC50 in test [2] of 2.5 µg/mL.

B1: mouse anti-human CD134 monoclonal antibody clone 12H3 (antibody, mouse IgG1, V domains shown)
VH: EVQLQQSGPELVKPGASVKISCKTSGYTFKDYTMHWVKQSHGKSLEWIGGIYPNNGGSTYNQNFKDKATLTVDKSSSTAYMEFRSLTSEDSAVYYCARMGYHGPHLDFDVWGAGTTVTVSP
VL: DIVMTQSHKFMSTSLGDRVSITCKASQDVGAAVAWYQQKPGQSPKLLIYWASTRHTGVPDRFTGGGSGTDFTLTISNVQSEDLTDYFCQQYINYPLTFGGGTKLEIKR
notes: also called m12H3
Consider B1, for which the binding result in test [3] is “no binding (tested: 20.0 µg/mL)”; in test [4], “binds”; in [5] it was “no binding (tested: 50 µg/mL)”. Besides, the EC50 in test [2] is 0.5 µg/mL.

B2: chimeric human IgG4κ anti-human CD134 monoclonal antibody clone 12H3 (antibody, V domains shown)
VH: EVQLQQSGPELVKPGASVKISCKTSGYTFKDYTMHWVKQSHGKSLEWIGGIYPNNGGSTYNQNFKDKATLTVDKSSSTAYMEFRSLTSEDSAVYYCARMGYHGPHLDFDVWGAGTTVTVSP
VL: DIVMTQSHKFMSTSLGDRVSITCKASQDVGAAVAWYQQKPGQSPKLLIYWASTRHTGVPDRFTGGGSGTDFTLTISNVQSEDLTDYFCQQYINYPLTFGGGTKLEIKR
For the molecule B2, the binding result in test [6] is “no binding (tested: 50 µg/mL)”; in [7], “no binding (tested: 20.0 µg/mL)”; in test [8], “binds”.

B3: mouse anti-human CD134 monoclonal antibody clone 20E5 (antibody, mouse IgG1, V domains shown)
VH: EVQLQQSGPELVKPGASVKMSCKASGYTFTSYVMHWVKQKPGQGLEWIGYINPYNDGTKYNEKFKGKATLTSDKSSSTAYMELSSLTSEDSAVYYCANYYGSSLSMDYWGQGTSVTVSS
VL: DIQMTQTTSSLSASLGDRVTISCRASQDISNYLNWYQQKPDGTVKLLIYYTSRLHSGVPSRFSGSGSGTDYSLTISNLEQEDIATYFCQQGNTLPWTFGGGTKLEIKR
notes: also called m20E5
Take B3: it took 2.5 µg/mL to reach a half-maximal effect in [2] (EC50).

B4: chimeric human IgG4κ anti-human CD134 antibody clone 20E5 (antibody, V domains shown)
VH: EVQLQQSGPELVKPGASVKMSCKASGYTFTSYVMHWVKQKPGQGLEWIGYINPYNDGTKYNEKFKGKATLTSDKSSSTAYMELSSLTSEDSAVYYCANYYGSSLSMDYWGQGTSVTVSS
VL: DIQMTQTTSSLSASLGDRVTISCRASQDISNYLNWYQQKPDGTVKLLIYYTSRLHSGVPSRFSGSGSGTDYSLTISNLEQEDIATYFCQQGNTLPWTFGGGTKLEIKR
notes: also called hu20E5
In the case of B4, the EC50 in [9] is ~1 µg/mL.
